Values belong to the binder of their own block, whether it stands above or below them.
Tests used:
human LILRB2 = target: T1, human LILRB2 (human, UniProt Q8N423 22-597); assay: FACS on cells expressing human LILRB2, labeled anti-mouse Fc secondary antibody
T1 construct: whole, on cells; also called ILT4
Protocol: (§1) ELISA assays were used to screen antibodies against human ILT3 and human LILRA1,2,4-6. […] These antibodies were rescreened by FACS for binding to human ILT3 and cyno ILT3 expressed on HEK-293T cells. The antibodies that bound to both human and cyno ILT3 were selected. This subset of antibodies were screened by FACS against human LILRB1-5 (ILT2, ILT4, ILT5, ILT3, and LILRB5, respectively), cyno LILRB5, and human LILRA1,2,4-6. For FACS screening, each antibody was incubated with cells expressing human ILT3, cyno ILT3, one of the LILRA proteins, or one of the LILRB proteins for 30 minutes at 4° C. After washing, the cells were incubated with labeled anti-mouse Fc antibody for 30 minutes at 4° C. After washing, cells were analyzed on a flow cytometer. Antibodies were selected on the criteria of binding to human ILT3, cyno ILT3, no or limited binding to other LILRB proteins, and no or limited binding to LILRA proteins.

[1] = target: human ILT3 expressed on myeloid cells (THP-1 cells, primary dendritic cells, macrophages) (human, UniProt Q8NHJ6 22-448); assay: cell-based or functional assay
[2] = target: T2, ILT3ECD-Fc (human ILT3 extracellular domain fused to an immunoglobulin Fc region) (human, UniProt Q8NHJ6 22-259); assay: blocking of the binding of ILT3-ECD-Fc (1 µg/mL) to endogenous fibronectin on Detroit 551 cells; imaging with polyclonal anti-ILT3 and AlexaFluor 647 secondary antibody
T2 construct: also called Human ILT3ECD-Fc; not shown: immunoglobulin Fc region
Protocol: FIG. 14. ILT3 binding to endogenously expressed fibronectin. Detroit 551 cells were plated onto poly-D-lysine-coated 384-well plates at 6×10³ cells/well and incubated for two days. Monolayers were rinsed with HBSS containing Mg²⁺ and Ca²⁺. ILT3-ECD-Fc was added to the wells in the presence of ant-ILT3 antibody 16C5, anti-ILT3 antibody ch5A7, or control anti-KLH antibody. The antibodies were serially diluted 3-fold in media containing the ILT3-ECD-Fc (range of 66 nM to 0.27 nM). Cells were incubated for 1 hr at room temperature and then washed three times with HBSS and fixed with 3.7% formalin for 10 min. Monolayers were rinsed with PBS and blocked with 1% BSA in PBS before staining with Hoechst stain and a commercially available polyclonal anti-ILT3 antibody. An AlexaFluor 647-conjugated rabbit anti-goat Fc secondary antibody was added, cells were imaged, and the level of fluorescence was quantified using a CellInsight imaging system.
The Detroit 551 cell line is composed of human skin fibroblasts established from normal fetal tissue. These cells have endogenously produced fibronectin bound to receptors on their surface. […] An AlexaFluor 647-conjugated rabbit anti-goat Fc secondary antibody (Jackson ImmunoResearch Labs) was added, cells were imaged, and the level of fluorescence was quantified using a Celllnsight imaging system.

LILRB3 = target: T3, LILRB3 (human, UniProt O75022); assay: FACS on cells expressing human LILRB3, labeled anti-mouse Fc secondary antibody
T3 construct: expressed on the cell surface; also called human LILRB3; ILT5
T3 sequence (O75022 24-631 limits assumed): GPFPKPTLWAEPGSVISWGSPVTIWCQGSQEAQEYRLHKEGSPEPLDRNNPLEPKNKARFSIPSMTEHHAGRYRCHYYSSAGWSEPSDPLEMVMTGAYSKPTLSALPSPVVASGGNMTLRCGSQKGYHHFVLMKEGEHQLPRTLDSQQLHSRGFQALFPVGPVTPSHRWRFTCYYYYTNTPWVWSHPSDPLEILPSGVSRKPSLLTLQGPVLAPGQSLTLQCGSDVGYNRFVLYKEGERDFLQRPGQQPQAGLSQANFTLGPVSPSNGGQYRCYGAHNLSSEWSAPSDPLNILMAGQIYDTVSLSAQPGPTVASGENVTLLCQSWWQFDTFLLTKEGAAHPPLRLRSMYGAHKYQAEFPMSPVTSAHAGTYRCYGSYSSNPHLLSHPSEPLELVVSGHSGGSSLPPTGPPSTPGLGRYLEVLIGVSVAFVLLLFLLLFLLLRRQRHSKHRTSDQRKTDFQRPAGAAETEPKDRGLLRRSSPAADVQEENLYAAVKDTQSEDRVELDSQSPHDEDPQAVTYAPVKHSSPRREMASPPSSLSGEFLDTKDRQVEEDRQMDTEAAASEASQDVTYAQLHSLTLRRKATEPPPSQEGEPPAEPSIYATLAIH
Protocol: as §1

human LILRA5 = target: T4, human LILRA5 (human, UniProt A6NI73 42-299); assay: FACS on cells expressing human LILRA5, labeled anti-mouse Fc secondary antibody
T4 construct: whole, on cells
T4 sequence (A6NI73 42-299): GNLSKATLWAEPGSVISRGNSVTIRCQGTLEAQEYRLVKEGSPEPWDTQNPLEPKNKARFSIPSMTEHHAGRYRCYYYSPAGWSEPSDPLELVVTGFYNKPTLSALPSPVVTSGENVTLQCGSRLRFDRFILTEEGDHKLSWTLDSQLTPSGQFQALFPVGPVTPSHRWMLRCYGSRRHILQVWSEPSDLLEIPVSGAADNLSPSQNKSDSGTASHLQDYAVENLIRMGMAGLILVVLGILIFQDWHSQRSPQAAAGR
Protocol: as §1

human LILRA4 = target: T5, human LILRA4 (human, UniProt P59901 24-499); assay: FACS on cells expressing human LILRA4, labeled anti-mouse Fc secondary antibody
T5 construct: whole, on cells
T5 sequence (P59901 24-499): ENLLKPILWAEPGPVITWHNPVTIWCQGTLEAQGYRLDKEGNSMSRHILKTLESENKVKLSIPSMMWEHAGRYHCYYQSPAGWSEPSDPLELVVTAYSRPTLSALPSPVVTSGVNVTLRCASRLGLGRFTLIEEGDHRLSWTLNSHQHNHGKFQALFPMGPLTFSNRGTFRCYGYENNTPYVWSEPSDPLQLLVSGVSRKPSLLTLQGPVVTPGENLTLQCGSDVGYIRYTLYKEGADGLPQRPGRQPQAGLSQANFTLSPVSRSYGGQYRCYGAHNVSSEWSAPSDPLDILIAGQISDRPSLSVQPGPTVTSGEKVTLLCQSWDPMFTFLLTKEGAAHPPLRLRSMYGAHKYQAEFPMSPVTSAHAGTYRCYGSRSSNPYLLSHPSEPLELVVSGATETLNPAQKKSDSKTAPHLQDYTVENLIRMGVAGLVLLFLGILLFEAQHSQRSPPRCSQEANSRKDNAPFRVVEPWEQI
Protocol: as §1

human LILRA1 = target: T6, human LILRA1 (human, UniProt O75019 17-489); assay: FACS on cells expressing human LILRA1, labeled anti-mouse Fc secondary antibody
T6 construct: whole, on cells
T6 sequence (O75019 17-489): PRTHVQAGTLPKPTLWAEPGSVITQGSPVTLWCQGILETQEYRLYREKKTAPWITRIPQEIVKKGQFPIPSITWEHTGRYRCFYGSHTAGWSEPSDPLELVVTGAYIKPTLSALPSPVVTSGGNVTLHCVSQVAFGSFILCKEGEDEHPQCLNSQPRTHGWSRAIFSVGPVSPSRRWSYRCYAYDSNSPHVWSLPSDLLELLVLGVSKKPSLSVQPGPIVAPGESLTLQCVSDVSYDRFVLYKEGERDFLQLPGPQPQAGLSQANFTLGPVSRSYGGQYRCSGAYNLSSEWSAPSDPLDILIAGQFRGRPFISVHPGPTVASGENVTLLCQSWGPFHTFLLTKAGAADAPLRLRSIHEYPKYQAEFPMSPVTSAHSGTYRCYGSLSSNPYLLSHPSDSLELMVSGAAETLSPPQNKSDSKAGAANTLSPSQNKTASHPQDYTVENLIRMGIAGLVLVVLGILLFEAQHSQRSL
Protocol: as §1

[3] = target: T7, extracellular domain of human ILT3 (huILT3-ECD) (human, UniProt Q8NHJ6 22-259); assay: SPR (Biacore), antibody captured via anti-Fc on CM5 chip, soluble ILT3-ECD injected, 37 C
T7 construct: also called human ILT3-ECD
Protocol: (§2) The binding affinities of anti-ILT3 antibodies to human ILT3 and cyno ILT3 were measured using a Biacore system (GE Healthcare LifeSciences). Briefly, anti-Fc antibody (Sigma-Aldrich) was immobilized on all four flow cells of a CM5 chip using amine coupling reagents (GE Healthcare LifeSciences). Antibodies were captured on flow cells 2, 3, and 4 using flow cell 1 as a reference. Concentrations ranging from 3.3-10 nM of human or cyno ILT3-ECD were injected at a flow rate of 50 μL/min at 37° C. Kinetic data were collected over time and fit using the simultaneous global fit equation to yield affinity constants (KD values) for each antibody.

[4] = target: T8, extracellular domain of cyno ILT3 (cynoILT3-ECD) (cynomolgus monkey); assay: as above
T8 chain: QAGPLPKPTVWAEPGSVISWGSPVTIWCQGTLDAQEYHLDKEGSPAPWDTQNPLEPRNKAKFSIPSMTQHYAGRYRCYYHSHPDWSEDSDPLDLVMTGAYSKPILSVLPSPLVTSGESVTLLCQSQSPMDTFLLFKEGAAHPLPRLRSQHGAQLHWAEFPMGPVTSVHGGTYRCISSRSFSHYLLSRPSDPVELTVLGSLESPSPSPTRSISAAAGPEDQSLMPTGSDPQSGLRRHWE
Protocol: as §2

LILRB4 = target: T9, LILRB4; assay: FACS on cells expressing human LILRB4 (ILT3), labeled anti-mouse Fc secondary antibody
T9 construct: the construct expressed on the cells is not described further; also called human ILT3 expressed on cells for the FACS screen; ILT3
T9 sequence (receptor, as listed by the source limits assumed): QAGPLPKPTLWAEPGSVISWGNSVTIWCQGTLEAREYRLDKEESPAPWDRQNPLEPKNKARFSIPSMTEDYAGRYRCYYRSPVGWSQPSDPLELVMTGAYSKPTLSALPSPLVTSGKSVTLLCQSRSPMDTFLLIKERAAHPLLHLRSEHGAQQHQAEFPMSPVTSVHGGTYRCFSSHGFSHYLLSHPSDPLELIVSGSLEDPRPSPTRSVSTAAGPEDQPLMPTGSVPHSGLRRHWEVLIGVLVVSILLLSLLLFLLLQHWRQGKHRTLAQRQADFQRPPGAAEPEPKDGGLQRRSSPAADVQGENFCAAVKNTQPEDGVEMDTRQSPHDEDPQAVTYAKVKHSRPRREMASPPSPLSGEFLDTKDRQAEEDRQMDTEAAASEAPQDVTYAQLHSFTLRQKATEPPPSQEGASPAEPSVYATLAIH
Protocol: as §1

Cyno LILRB5 = target: T10, Cyno LILRB5 (Macaca fascicularis, UniProt A0A2K5VIP6); assay: FACS on cells expressing cyno LILRB5, labeled anti-mouse Fc secondary antibody
T10 construct: expressed on the cell surface; also called cynomolgus LILRB5
T10 sequence (A0A2K5VIP6 entry or part of it): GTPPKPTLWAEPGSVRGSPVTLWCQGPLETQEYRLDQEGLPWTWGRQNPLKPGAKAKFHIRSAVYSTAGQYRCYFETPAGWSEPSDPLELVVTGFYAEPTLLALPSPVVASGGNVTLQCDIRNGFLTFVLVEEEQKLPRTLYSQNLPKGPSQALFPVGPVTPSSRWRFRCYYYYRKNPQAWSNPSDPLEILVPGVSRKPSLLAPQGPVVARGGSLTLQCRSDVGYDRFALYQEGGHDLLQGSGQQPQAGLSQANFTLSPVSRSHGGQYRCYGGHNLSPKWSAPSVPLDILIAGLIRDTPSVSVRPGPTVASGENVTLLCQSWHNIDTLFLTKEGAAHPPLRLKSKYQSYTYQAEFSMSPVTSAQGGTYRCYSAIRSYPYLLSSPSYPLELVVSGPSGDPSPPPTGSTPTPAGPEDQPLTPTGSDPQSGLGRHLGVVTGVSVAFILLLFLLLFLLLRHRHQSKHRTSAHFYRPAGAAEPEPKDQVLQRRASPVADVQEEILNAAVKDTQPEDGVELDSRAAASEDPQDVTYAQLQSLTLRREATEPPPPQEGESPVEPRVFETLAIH
Protocol: as §1

human LILRA6 = target: T11, human LILRA6 (human, UniProt Q6PI73 24-447, limits assumed); assay: FACS on cells expressing human LILRA6, labeled anti-mouse Fc secondary antibody
T11 construct: Read out of the printed 'LILRA1,2,4-6'
T11 sequence (Q6PI73 24-447 limits assumed): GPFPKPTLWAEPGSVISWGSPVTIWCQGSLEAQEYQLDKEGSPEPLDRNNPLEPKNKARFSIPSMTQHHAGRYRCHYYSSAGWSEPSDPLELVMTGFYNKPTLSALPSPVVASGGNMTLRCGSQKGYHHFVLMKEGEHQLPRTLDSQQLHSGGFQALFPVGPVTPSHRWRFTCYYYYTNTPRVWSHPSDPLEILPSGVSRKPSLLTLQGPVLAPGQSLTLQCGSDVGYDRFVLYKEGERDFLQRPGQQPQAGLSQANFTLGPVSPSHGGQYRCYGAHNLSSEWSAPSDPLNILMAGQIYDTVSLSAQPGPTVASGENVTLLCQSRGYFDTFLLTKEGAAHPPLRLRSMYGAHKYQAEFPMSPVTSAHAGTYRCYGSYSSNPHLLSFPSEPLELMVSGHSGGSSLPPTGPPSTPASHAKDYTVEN
Protocol: as §1

[5] = target: ILT3 extracellular domain chimeric receptor on NFAT-GFP reporter cells (human); assay: cell-based or functional assay
Sequence of ILT3 extracellular domain chimeric receptor on NFAT-GFP reporter cells (human) (Q8NHJ6 22-259, change not shown): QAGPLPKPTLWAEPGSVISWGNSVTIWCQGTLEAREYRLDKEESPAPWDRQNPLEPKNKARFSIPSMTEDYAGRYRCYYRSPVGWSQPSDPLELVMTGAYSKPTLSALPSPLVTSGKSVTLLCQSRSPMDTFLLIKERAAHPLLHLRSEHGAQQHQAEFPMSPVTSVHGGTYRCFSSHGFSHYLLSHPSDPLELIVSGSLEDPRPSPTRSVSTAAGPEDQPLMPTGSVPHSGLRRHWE

LILRB5 = target: T12, LILRB5 (human, UniProt O75023); assay: FACS on cells expressing human LILRB5, labeled anti-mouse Fc secondary antibody
T12 construct: expressed on the cell surface; also called human LILRB5; CD85C
Protocol: as §1

human LILRA2 = target: T13, human LILRA2 (human, UniProt Q8N149 24-483); assay: FACS on cells expressing human LILRA2, labeled anti-mouse Fc secondary antibody
T13 construct: whole, on cells
T13 sequence (Q8N149 24-483): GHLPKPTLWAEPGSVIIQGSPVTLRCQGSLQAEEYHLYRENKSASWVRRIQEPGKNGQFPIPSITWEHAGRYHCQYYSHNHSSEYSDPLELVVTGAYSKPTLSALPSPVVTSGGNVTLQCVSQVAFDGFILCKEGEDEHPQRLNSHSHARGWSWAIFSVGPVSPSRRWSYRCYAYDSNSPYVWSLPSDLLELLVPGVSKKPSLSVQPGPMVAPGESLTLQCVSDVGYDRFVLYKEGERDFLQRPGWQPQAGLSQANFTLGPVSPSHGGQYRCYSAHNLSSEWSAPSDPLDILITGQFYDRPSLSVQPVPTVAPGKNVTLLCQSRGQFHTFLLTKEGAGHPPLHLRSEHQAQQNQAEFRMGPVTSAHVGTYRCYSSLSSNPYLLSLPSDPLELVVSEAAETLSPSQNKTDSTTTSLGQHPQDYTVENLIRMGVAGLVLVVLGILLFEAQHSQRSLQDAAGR
Protocol: as §1

[6] = target: T14, human plasma-derived fibronectin (Millipore) (human, UniProt P02751 32-2477); assay: SPR (Biacore), human plasma fibronectin amine-coupled on CM5 chip, ECD-Fc injected, 37 C
T14 construct: Bought protein; also called human plasma fibronectin; human fibronectin
Protocol: (§3) The binding of ILT3 to fibronectin was evaluated by Biacore. Human plasma fibronectin was immobilized onto a CM5 sensor chip surface (flow cell 2) using standard amine coupling chemistry. Collagen type IV was immobilized onto flow cell 3 and used as a control. Human ILT3ECD-Fc or human LAIR1ECD-Fc were injected over both surfaces at different concentrations (125-4000 nM) at a flow rate of 50 μL/min at 37° C. Kinetic data were collected over time and fit using the simultaneous global fit equation to yield affinity constants (KD values) for each antibody.

collagen type IV = target: T15, collagen type IV; assay: SPR (Biacore), collagen type IV amine-coupled on CM5 chip, LAIR1ECD-Fc injected at 125-4000 nM, 37 C
T15 construct: Control surface in the Biacore experiment; also called collagen IV
Protocol: as §3

T1 sequence (Q8N423 22-597): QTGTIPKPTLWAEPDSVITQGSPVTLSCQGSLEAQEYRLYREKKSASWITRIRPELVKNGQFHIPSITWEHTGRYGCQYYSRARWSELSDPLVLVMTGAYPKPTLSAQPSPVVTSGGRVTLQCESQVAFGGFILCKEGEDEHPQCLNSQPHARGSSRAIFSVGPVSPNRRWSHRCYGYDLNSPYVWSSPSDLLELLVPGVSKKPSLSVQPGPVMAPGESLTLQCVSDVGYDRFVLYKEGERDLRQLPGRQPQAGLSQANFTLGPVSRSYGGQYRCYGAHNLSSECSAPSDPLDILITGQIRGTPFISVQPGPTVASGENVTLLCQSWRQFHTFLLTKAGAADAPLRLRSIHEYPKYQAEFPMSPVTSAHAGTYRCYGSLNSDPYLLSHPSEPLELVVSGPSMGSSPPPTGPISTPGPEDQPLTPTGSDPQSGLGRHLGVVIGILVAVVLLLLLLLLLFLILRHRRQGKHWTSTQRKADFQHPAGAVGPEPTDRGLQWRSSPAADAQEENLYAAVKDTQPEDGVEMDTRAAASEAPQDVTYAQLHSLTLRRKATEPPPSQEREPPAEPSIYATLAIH

EC50 (read off the curve) [1]: ~2 nM | binding result [2]: binds | binding result (human LILRA5): binds | Kd [3]: 1.8 nM | koff [3]: 0.0002 s⁻¹ | kon [3]: 110000 M⁻¹ s⁻¹ | Kd [4]: 0.31 nM | koff [4]: 9e-05 s⁻¹ | kon [4]: 290000 M⁻¹ s⁻¹ | binding result (LILRB4): binds | EC50 (read off the curve) (Cyno LILRB5): ~900 pM | IC50 (read off the curve) [5]: ~200 pM
B1: anti-ILT3 antibody 16C5 (antibody, V domains shown)
VH: EVQLQQSGPELVKPGASVKISCKASGYTFTDYNMDWVKQSHGKSLEWIGYIYPSNGGTGYNQKFKSKATLTVDKSSNTAYMELHSLTSEDSAVYYCARVPYYDYLYYYAMDYWGQGTSVTVSS
VL: QIVLSQSPAILSASPGEKVTMACRASSSVSFMHWYQQKPGSSPQPWIYATSNLASGVPARFSGSGSGTSYSLTISRVEAEDAATYYCQQWSTNPYMYTFGGGTKLEIK
notes: Mouse monoclonal antibody from hybridoma
binding result (human LILRB2): no binding (tested: log [Ab] about -7.2 M (about 6e-8 M)) | binding result (LILRB3): no binding (tested: log [Ab] about -7.2 M (about 6e-8 M)) | binding result (human LILRA4): no binding (tested: log [Ab] about -7.2 M (about 6e-8 M)) | binding result (human LILRA1): no binding (tested: log [Ab] about -7.2 M (about 6e-8 M)) | binding result (human LILRA6): no binding (tested: log [Ab] about -7.2 M (about 6e-8 M)) | binding result (LILRB5): no binding (tested: log [Ab] about -7.2 M (about 6e-8 M)) | binding result (human LILRA2): no binding (tested: log [Ab] about -7.2 M (about 6e-8 M))

binding result [6]: no binding (tested: 125-4000 nM) | Kd (collagen type IV): ≥ 5 µM
B2: human LAIR1ECD-Fc (Fc fusion, UniProt Q6GTX8 22-165, looked up)
chain: QEEDLPRPSISAEPGTVIPLGSHVTFVCRGPVGVQTFRLERDSRSTYNDTEDVSQASPSESEARFRIDSVREGNAGLYRCIYYKPPKWSEQSDYLELLVKESSGGPDSPDTEPGSSAGPTQRPSDNSHNEHAPASQGLKAEHLY
notes: extracellular domain; not shown: Fc region
